According to article PMC5304152:
Where “and” joins values, the source holds several entries; their conditions need not be identical. Equal values may be shown once.

Biological target: barfin plaice type I antifreeze protein, 40-residue major isoform (bpAFP) (barfin plaice (Liposetta pinnifasciata))
Test: AUC; sedimentation velocity, 40,000 rpm, 4 °C, 2.5 mg bpAFP in 0.5 mL (5 mg/mL) 10 mM sodium phosphate pH 7.9, absorbance optics; monomer to tetramer (and octamer)

With “barfin plaice type I antifreeze protein, 40-residue major isoform (bpAFP) (peptide)” the percent of loaded protein sedimenting as tetramer was 2.7% and the stoichiometry N was 4 and 8.
